From patent US20230086530A1 (SHANGHAI ESCUGEN BIOTECHNOLOGY, published 2023)
Read-outs that look alike come from different tables or passages of the source.

Legend:
[1] = biological target: T1, CD47 on cynomolgus macaque erythrocytes (cynomolgus macaque, UniProt A0A5F8AK49 19-323 (rhesus entry)); assay: flow cytometry on cynomolgus macaque erythrocytes of 4 animals
T1 construct: whole, on cells

[2] = biological target: T2, CD47 on cynomolgus macaque platelets (cynomolgus macaque, UniProt A0A5F8AK49 19-323 (rhesus entry)); assay: flow cytometry, cynomolgus macaque platelets, animal 567#
T2 construct: whole, on cells

CD47 on human platelets [3] = biological target: T3, CD47 on human platelets (human, UniProt Q08722 19-323); assay: flow cytometry, human platelets
T3 construct: whole, on cells
Description: (§1) After the platelets were counted with a hemocytometer, the density of the platelets was adjusted to 1.5×10⁷/mL with PBS+1% FBS, and 100 μL of above sample was added to each well of a 96-well U-shaped plate. […] After incubating at 4° C. for 1 h, the samples were centrifuged at 1000 rpm for 3 mins and rinsed once with PBS+1% FBS. 100 μl of 1:1000 diluted goat anti-human IgG (H+L)-AlexaFluor488 (purchased from eBioscience, Cat. No. A11013) was added to each well, and incubated at 4° C. for 45 mins. The samples were centrifuged at 1000 rpm for 3 mins, rinsed twice with PBS+1% FBS, resuspended in 200 μl of PBS+1% FBS, and transferred to a flow tube for on-board detection.

[4] = biological target: T4, Human CD47 recombinant protein (Human CD47 His Tag), ACRO Biosystems Cat. No. CD7-H5227 (human, UniProt Q08722 19-139); assay: SPR BIAcore 8K, antibody captured by anti-human IgG Fc on CM5, huCD47 (His tag) in flow, 25 C, 1:1 model
T4 construct: bought protein; also called huCD47-His; huCD47; not shown: His tag
Description: The binding time of the huCD47 to the antibody was 180 s, the dissociation time was 900 s, and the reaction temperature was 25° C. The binding constant ka, the dissociation constant kd and the affinity KD were calculated by FitGlobal using BIAcore 8K Evaluation software (GE Healthcare) according to the 1:1 binding model.

[5] = biological target: T5, CD47 on human erythrocytes (human, UniProt Q08722 19-323); assay: flow cytometry, human erythrocytes, second individual
T5 construct: whole, on cells; Kept apart from m1 because the same antibodies behave differently on these cells

[6] = biological target: T2, CD47 on cynomolgus macaque platelets; assay: flow cytometry, cynomolgus macaque platelets, animal 194#
[7] = biological target: T5, CD47 on human erythrocytes; assay: flow cytometry, human erythrocytes, first individual
[8] = biological target: T2, CD47 on cynomolgus macaque platelets; assay: flow cytometry, cynomolgus macaque platelets, animal 186#
[9] = biological target: T5, CD47 on human erythrocytes; assay: flow cytometry, human erythrocytes
CD47 on human platelets [10] = biological target: T3, CD47 on human platelets; assay: flow cytometry, human platelets; remark: listed apart in the source
Description: as §1

[11] = biological target: T6, biotinylated-CD47 (ACRO Biosystems Cat. No. CD7-H82E9) (UniProt Q08722 19-139, biotinylated (site not stated)); assay: competition ELISA; blocked: biotinylated-CD47 binding to coated SIRPα-His
T6 construct: also called CD47 recombinant protein
Description: After rinsing 4 times with PBST, 200 μl of PBS+1% BSA was added to each well, blocking for 1 h at room temperature, and rinsing 4 times with PBST. […] The 96-well plate was rinsed 4 times with PBST, 100 μl of Steptavidin-HRP (Invitrogen #434323) diluted 1:2500 was added to each well, and incubated at room temperature for 1 h. After rinsing the 96-well plate four times with PBST, 100 μl of TMB substrate (Cell Signaling, Cat. No. 7004) was added to each well, and after color development at room temperature for 10 mins, 50 μl of stop solution was added to stop the reaction.

[12] = biological target: T4, Human CD47 recombinant protein (Human …); assay: competition ELISA: huCD47-His coated, VHH against 5 nM SIRPα-mIgG1
Description: 100 μl of 1 μg/mL huCD47-His antigen (purchased from ACRO Biosystems, Cat. No. CD7-H5227) was add to a 96-well plate, and coated overnight at 4° C. The plate was washed three times with 250 μl of PBST, and added 100 μl of purified VHH to the final concentrations of 500, 50, 5, and 0.5 nM, respectively, and incubated at room temperature for 1 h. […] After washing the plate three times with PBST, goat anti-mouse HRP-conjugate (purchased from Invitrogen, Cat. No. 31430) diluted 1:5000 was added and incubated for 45 mins. After washing the plate three times with 250 μl of PBST, TMB (purchased from Cell Signaling Technology, Cat. No. 7004) as a chromogenic substrate was added and developed color for 10 mins. After quenching the reaction with 0.5M HCl, data was read on a microplate reader.

[13] = biological target: T7, human CD47 on the cell membrane surface of CD47 positive tumor cells (Raji, NUGC-4, Jurkat) (human, UniProt Q08722 19-323); assay: FACS on Raji cells, VHH 5 µg/mL
T7 construct: whole, on cells; also called huCD47 on the cell membrane surface; cell surface CD47
Description: (§2) Antibodies that can bind to CD47 positive cells were screened by flow cytometry (FACS). Human Burkitt's lymphoma cells Raji (purchased from the Cell Bank of the Chinese Academy of Sciences, Cat. No. TCHu 44) were cultured in RPMI-1640 medium (purchased from Gibco, Cat. No. 11875-093) comprising 10% fetal bovine serum FBS (purchased from Gibco, Cat. No. 1009141) at 37° C. with 5% CO₂.
(§3) Raji cells were collected by centrifugation at 800 rpm for 3 mins, rinsed once with PBS+1% FBS and resuspended for counting. In a 96-well plate, 1×10⁵ Raji cells were added to each well, and then the VHH (purified) samples were added in a gradient dilution. The final concentrations of VHH were 5, 0.5, and 0.05 μg/mL, respectively. After mixing, it was mixed with Raji cells and incubateed at room temperature for 1 h. Raji cells were collected by centrifugation at 1400 rpm for 3 mins. […] The cells were rinsed twice with PBS+1% FBS and analyzed on an iQuePlus flow cytometer.
(§4) The mean fluorescence intensity (MFI) of the control well with only fluorescent secondary antibody was used as the mean fluorescence intensity of the background value, and the multiple of the mean fluorescence intensity of the sample and the mean fluorescence intensity of the background value was used to evaluate the binding strength of the VHH single-domain antibody to Raji cells.

[14] = biological target: T7, human CD47 on the cell membrane surface …; assay: FACS on Raji cells, VHH 0.05 µg/mL
Description: as §2, §3, §4

[15] = biological target: T7, human CD47 on the cell membrane surface …; assay: FACS on Raji cells, VHH 0.5 µg/mL
Description: as §2, §3, §4

B1: control antibody 5F9 (antibody, human IgG4 S228P, kappa)
heavy: not shown
light: DVLMTQTPLSLPVSLGDQASISCRSSQSIVYSNGNTYLGWYLQKPGQSPKLLIYKVSNRFSGVPDRFSGSGSGTDFTLKISRVEAEDLGVYHCFQGSHVPYTFGGGTKVEIKRTVAAPSVFIFPPSDEQLKSGTASVVCLLNNFYPREAKVQWKVDNALQSGNSQESVTEQDSKDSTYSLSSTLTLSKADYEKHKVYACEVTHQGLSSPVTKSFNRGEC
notes: also called 5F9 antibody
EC50 [1]: 0.01 to 0.03 µg/mL
EC50 (read off the curve) [2]: ~0.5 µg/mL
EC50 (read off the curve) (CD47 on human platelets [3]): ~0.02 µg/mL
Kd [4]: 7.68 nM
koff [4]: 0.055 s⁻¹
kon [4]: 7.16e+06 M⁻¹ s⁻¹
EC50 (read off the curve) [5]: ~0.02 µg/mL
EC50 (read off the curve) [6]: ~0.3 µg/mL
EC50 (read off the curve) [7]: ~0.03 µg/mL
EC50 (read off the curve) [8]: ~0.3 µg/mL
EC50 (read off the curve) [9]: ~2 nM
EC50 (read off the curve) (CD47 on human platelets [10]): ~0.8 µg/mL
IC50 (read off the curve) [11]: ~0.3 µg/mL

B2: DX-36699 VHH single-domain antibody (VHH)
VHH: DVQLQASGGGSVEAGGSLTLSCLASGFYNMRWYRQAPGNERELVARIGIGGSTDYADSVKGRFTISRGNAKNMVHLQMNSLKPEDTAVYYCWGGGYWGQGTQVTVSS
notes: purified from E. coli (NiNTA)
IC50 [12]: 15 nM
Mean fluorescence intensity (multiple) [13]: 152 fold
Mean fluorescence intensity (multiple) [14]: 27.2 fold
Mean fluorescence intensity (multiple) [15]: 61.4 fold

B3: DX-36698 VHH single-domain antibody (VHH)
VHH: QVQLVESGGGLVQAGGSLRLSCAASVRTFSIYAMGWFRQAPGKDREFVGAISGRGYTTYYVDSVKGRFTISRDNAKNTVYLQMNSLKPEDTAVYYCAADLYGSRRYADRESYDYWGQGTQVTVSS
notes: purified from E. coli (NiNTA)
IC50 [12]: 616 nM
Mean fluorescence intensity (multiple) [13]: 204 fold
Mean fluorescence intensity (multiple) [14]: 43.5 fold
Mean fluorescence intensity (multiple) [15]: 142 fold
